Where two headings read alike, the source gives them in different places.
Assays:
[1] = target: memory CD4+ T cells from DR1+ donors, unstimulated (a small subset; their TCRs)
[2] = target: memory CD4+ T cells from DR1+ donors, unstimulated (a small subset; their TCRs); remark: listed apart in the source
Transduced TCR: None [3] = target: Transduced TCR: None
DR1-restricted TCR HA1.7 [4] = target: DR1-restricted TCR HA1.7
Transduced TCR: None [5] = target: Transduced TCR: None; remark: listed apart in the source
DR1-restricted TCR HA1.7 [6] = target: DR1-restricted TCR HA1.7; remark: listed apart in the source
[7] = target: memory CD4+ T cells from DR1+ donors, unstimulated (a small subset; their TCRs); remark: listed apart in the source
Transduced TCR: None [8] = target: Transduced TCR: None; remark: listed apart in the source
DR1-restricted TCR HA1.7 [9] = target: DR1-restricted TCR HA1.7; remark: listed apart in the source
DR1-restricted TCR HA1.7 [10] = assay: flow cytometry, TCR-transduced primary T cells
[11] = target: memory CD4+ T cells from DR1+ donors, unstimulated (a small subset; their TCRs); remark: listed apart in the source
[12] = target: memory CD4+ T cells from DR1+ donors, unstimulated (a small subset; their TCRs); remark: listed apart in the source
DR1-restricted TCR HA1.7 [13] = target: DR1-restricted TCR HA1.7; remark: listed apart in the source
[14] = target: memory CD4+ T cells from DR1+ donors, unstimulated (a small subset; their TCRs); remark: listed apart in the source
[15] = target: memory CD4+ T cells from DR1+ donors, unstimulated (a small subset; their TCRs); remark: listed apart in the source
Transduced TCR: None [16] = target: Transduced TCR: None; remark: listed apart in the source
[17] = target: memory CD4+ T cells from DR1+ donors, unstimulated (a small subset; their TCRs); remark: listed apart in the source
[18] = target: memory CD4+ T cells from DR1+ donors, unstimulated (a small subset; their TCRs); remark: listed apart in the source

DR1^L114W/V143M+2reps dimer loaded with Flu-HA117-136 (peptide-MHC)
events in the dimer+ CD4+ gate [1]: 74 evts | events in the dimer+ CD4+ gate [2]: 10 evts

DR1^L114W/V143M+6reps dimer loaded with Flu-HA306-318 (peptide-MHC)
percent multimer-positive CD4+ cells (number at the gate) (Transduced TCR: None [3]): 0.1% | percent multimer-positive CD4+ cells (number at the gate) (DR1-restricted TCR HA1.7 [4]): 48.2%

DR1^L114W/V143M dimer loaded with Flu-HA306-318 (peptide-MHC)
percent multimer-positive CD4+ cells (number at the gate) (Transduced TCR: None [5]): 0% | percent multimer-positive CD4+ cells (number at the gate) (DR1-restricted TCR HA1.7 [6]): 1.5%

Flu-HA232-251, DR1^L114W/V143M+2reps dimer (PE) (peptide-MHC)
events in the dimer+ CD4+ gate [7]: 0 evts

DR1^L114W/V143M+2reps dimer loaded with Flu-HA306-318 (peptide-MHC)
percent multimer-positive CD4+ cells (number at the gate) (Transduced TCR: None [8]): 0% | percent multimer-positive CD4+ cells (number at the gate) (DR1-restricted TCR HA1.7 [9]): 48.9% | % dimer+ CD4+ cells (DR1-restricted TCR HA1.7 [10]): 9.1% | events in the dimer+ CD4+ gate [11]: 18 evts | events in the dimer+ CD4+ gate [12]: 53 evts | percent multimer-positive CD4+ cells (number at the gate) (DR1-restricted TCR HA1.7 [13]): 53%

Flu-HA5-24, DR1^L114W/V143M+2reps dimer (PE) (peptide-MHC)
events in the dimer+ CD4+ gate [14]: 2 evts | events in the dimer+ CD4+ gate [15]: 1 evts

wild-type DR1 dimer loaded with Flu-HA306-318 (from UniProt P01911 30-227) (peptide-MHC)
percent multimer-positive CD4+ cells (number at the gate) (Transduced TCR: None [16]): 0.1%

Flu-HA268-287, DR1^L114W/V143M+2reps dimer (PE) (peptide-MHC)
events in the dimer+ CD4+ gate [17]: 2 evts | events in the dimer+ CD4+ gate [18]: 0 evts

Source: patent US20220291215A1
